Data taken from US20060275301A1 (Chugai, published 2006).

Biological target: T1, β2 microglobulin (human, UniProt P61769 21-119)
T1 construct: β2M alone, as a denatured band on a Western blot; also called 12 kD molecule
Test: Western blot

T1 sequence (P61769 21-119 limits assumed): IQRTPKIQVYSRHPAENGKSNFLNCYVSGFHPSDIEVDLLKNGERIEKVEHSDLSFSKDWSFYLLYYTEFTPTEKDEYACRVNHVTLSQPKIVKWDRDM

B1: 2D7 antibody (antibody, V domains shown)
VH: QVQLQQSGPELVKPGASVKMSCKASGYTFTDYFIHWVKQRPGQGLEWIGWIFPGDDTTDYNEKFRGKTTLTADKSSSTAYILLSSLTSEDSAMYFCVRSDDFDYWGQGTTLTVSS
VL: QIVLTQSPAIMSASPGEKVTITCSASSSVSYMHWFQQKPGTFPKLWIYSTSNLASGVPTRFSGSGSGTSYSLTISRMEAEDAATYYCQQRTSYPPTFGSGTKLEIK
notes: CDR1 starts at 50 and 46, so these ranges probably include the leader, but no cleavage site is stated
binding result: no binding
